Among the data in publication PMC5823874, “The structure of iPLA2β reveals dimeric active sites and suggests mechanisms of regulation and localization” (Nature Communications, 2018) are Kd values, retold here.

The Kd is the concentration at which binding is half-saturated. Lower therefore signals a tighter complex.

No end group written: not given here.

For this assay, the target named is Calmodulin (CaM), unmodified (UniProt P0DP23 1-149). The assay can be described thus: fluorescence polarisation; synthetic FAM-labeled peptides of iPLA2β with CaM (Supplementary Figure 7h). The settings on record: both partners purified. (In fluorescence polarisation assays a small probe gives low polarisation when free and higher when bound to something large.)

B1: Synthetic FAM-labeled peptide corresponding to the 1-9-14 motif of iPLA2β (peptide)
chain: RKGQGNKVKK
modifications: also: FAM label (position not given here)
The molecule B1 returned a Kd of 2.5 ± 0.4 µM.

B2: Synthetic FAM-labeled peptide corresponding to the IQ motif of iPLA2β (peptide)
chain: AWSEMVGIQYFR
modifications: also: FAM label (position not given here)
Regarding B2, the Kd is 5.9 ± 0.8 µM.
